Series [1] in a line: Evaluation of hydrophobicity by hydrophobic column chromatography (HIC-HPLC). In kind it is physicochemical. Conditions: hydrophobicity measure, Tosoh Biobuthyl NPR column, UV 280 nm. The procedure: According to a previous report (Anal. Chem., 2019, 91, 20, 12724-12732, which is incorporated herein by reference in its entirety), HIC-HPLC analysis was performed. Measurement was performed using the following conditions. The hydrophobicity of an ADC can be evaluated by retention time of the ADC in HIC chromatogram.
Measurement system: Chromaster (registered trademark) (manufactured by Hitachi, Ltd.)
Column: Tosoh Biobuthyl NPR 2.5 μm 4.6×35 mm column manufactured by Tosoh Bio-Sciences Inc.
Gradient: linear gradient of eluent A/B
Eluent B: 25 mM Na2HPO4/NaH2PO4 (pH 6.0, 25 v/v % isopropanol added)

The nature of series [2]: Test for stability of ADC mimic in mouse plasma (released fluorescent molecules). In kind it is in vitro ADME. Conditions: 0.1 mg/mL, 37° C., four days. The procedure:
An ADC mimic was added to 500 μL of mouse plasma (manufactured by Charles River) so as to have a concentration of 0.1 mg/mL, and then the mixture was subjected to sterile filtration. 50 μL of this solution was poured into each of six Eppendorf tubes. Three of the six samples were stored in an incubator set at 37° C. for four days. The remaining three samples were stored in a freezer at −80° C. for four days similarly. To each of the samples, 100 μL of acetonitrile was added. The mixture was stirred by vortex, and then centrifuged to obtain a precipitate. The resulting supernatant solution was collected and subjected to HPLC analysis.
For the measurement, the amount of fluorescent molecules released from an ADC mimic was measured using a liquid chromatography/fluorescence detection method. The three samples stored in a freezer in Example 9-1 were taken as Day=0 samples, and the three samples stored at 37° C. in Example 9-1 were taken as Day=4 samples. A difference in fluorescence intensity between Day=4 samples and Day=0 samples was analyzed.
A releasing ratio of the fluorescent molecules was calculated according to Example 7-2.
Regarding the results, as illustrated in the following Table, a releasing ratio of the fluorescent molecules was evaluated.

The nature of series [3]: Evaluation of aggregation ratio by size exclusion chromatography (SEC-HPLC). The series is classed as physicochemical. The conditions noted are these: UV 280 nm. The protocol: SEC-HPLC analysis was performed according to a previous report (Chemistry Select, 2020, 5, 8435-8439, which is incorporated herein by reference in its entirety). Measurement was performed using the following conditions.
Measurement system: 1260 HPLC system (manufactured by Agilent)
Column: AdvanceBio SEC 300 Å, 2.7 μm, 4.6 mm×150 mm, manufactured by Agilent Technologies
Eluent: 100 mM sodium dihydrogen phosphate/sodium hydrogen phosphate, aqueous solution of 250 mM sodium chloride (pH 6.8), 10′% v/v isopropanol
A general note: Size exclusion chromatography separates by hydrodynamic size, large species first.

A further series deals with cathepsin B (Homo sapiens, UniProt P07858). Nature of the series: Cathepsin B cleavability test of ADC mimics (released fluorescent molecules, HPLC/fluorescence). The series is classed as biochemical. Conditions: 1 mg/mL ADC mimic, MES buffer pH 5.0, 37° C., six hours. The procedure: Cleave abilities for various ADC mimics by cathepsin B were evaluated by analyzing the amount of fluorescent molecules released from the ADC mimics as described below.
A cathepsin B cleavability test was performed as follows according to a previous report (Nature Communications 2018, 9, 2512, which is incorporated herein by reference in its entirety). An ADC mimic was added to 180 μL of a MES buffer (10 mM MES, 40 μM DTT, pH 5.0) so as to have a concentration of 1 mg/mL, and then 30 μL of the solution was poured into each of six Eppendorf tubes. To each of three of the six samples, 100 μL of acetonitrile was immediately added at 0° C. The mixture was stirred by vortex, and then centrifuged to obtain a precipitate. The resulting supernatant solution was collected and subjected to HPLC analysis. The remaining three samples were incubated at 37° C. for six hours. To each of the samples, 100 μL of acetonitrile was added. The mixture was stirred by vortex, and then centrifuged to obtain a precipitate. The resulting supernatant solution was collected and subjected to HPLC analysis.
For the measurement, the amount of fluorescent molecules released from an ADC mimic was measured using a liquid chromatography/fluorescence detection method. The three samples to which acetonitrile was immediately added at 0° C. in Example 7-1 were taken as 0 hour samples, and the three samples incubated at 37° C. for six hours as described in Example 7-1 were taken as 6 hour samples. A difference in fluorescence intensity between the 6 hour samples and the 0 hour samples was analyzed.
Separately, a correlation between the area of a fluorescence intensity area by HPLC and a concentration was calculated using Pyrene. The difference in fluorescence intensity between the ADC mimics was converted into a concentration using the calculation formula. When the concentration at 0 hour was set to 100%, a ratio of the above-described difference in fluorescence intensity was calculated as a releasing ratio.

`CNC(=O)CCSC1CC(=O)N(CCCCCC(=O)N[C@@H](CCC(=O)O)C(=O)N[C@H](C(=O)N[C@@H](CCCNC(N)=O)C(=O)Nc2ccc(COC(=O)N(C)CC(=O)NCc3cc4ccc5cccc6ccc(c3)c4c56)cc2)C(C)C)C1=O` (stereo partly drawn) [ADC mimic 1] gave a Retention time in series [1] of 12.8 min. In addition, the “Releasing ratio of payload on Day 4” value in series [2] was 8%. The aggregation ratio in series [3] was found to be 3.0%. In addition, at cathepsin B, the “Releasing ratio of fluorescent molecule for 6 hours” value (“Releasing ratio … for 6 hours” below) is recorded as 88%.

In series [1], `CNC(=O)CCSC1CC(=O)N(CCCCCC(=O)N(CC(=O)O)CC(=O)N[C@H](C(=O)N[C@@H](CCCNC(N)=O)C(=O)Nc2ccc(COC(=O)N(C)CC(=O)NCc3cc4ccc5cccc6ccc(c3)c4c56)cc2)C(C)C)C1=O` (stereo partly drawn) [ADC mimic 3] had a Retention time of 12.7 min. In addition, the “Releasing ratio of payload on Day 4” value in series [2] is 9%. Besides, the aggregation ratio in series [3] was determined as 2.9%. The “Releasing ratio … for 6 hours” value at cathepsin B was 100%.

The molecule `CNC(=O)CCSC1CC(=O)N(CCCCCC(=O)N[C@@H](C(=O)N[C@H](CCCNC(N)=O)C(=O)Nc2ccc(COC(=O)N(C)CC(=O)NCc3cc4ccc5cccc6ccc(c3)c4c56)cc2)C(C)C)C1=O` (stereo partly drawn) [ADC mimic 4, reference compound] displayed a Retention time in series [1] of 13.1 min. Further, in series [2], the “Releasing ratio of payload on Day 4” value was determined as 38%. For the same molecule, the aggregation ratio in series [3] amounted to 6.2%. Further, the “Releasing ratio … for 6 hours” value at cathepsin B is 53%.

Source of the values: patent US20240165260A1, “CONJUGATES OF ANTIBODY AND FUNCTIONAL SUBSTANCE OR SALTS THEREOF, AND COMPOUNDS USED IN PRODUCTION OF THE SAME OR SALTS THEREOF” (priority 2021, published 2024).
